# Target: GSK3β used in the surface plasmon resonance binding assays (UniProt P49841 1-420)
# Experiment: SPR
# Sequence of GSK3β used in the surface plasmon resonance binding assays (P49841 whole entry): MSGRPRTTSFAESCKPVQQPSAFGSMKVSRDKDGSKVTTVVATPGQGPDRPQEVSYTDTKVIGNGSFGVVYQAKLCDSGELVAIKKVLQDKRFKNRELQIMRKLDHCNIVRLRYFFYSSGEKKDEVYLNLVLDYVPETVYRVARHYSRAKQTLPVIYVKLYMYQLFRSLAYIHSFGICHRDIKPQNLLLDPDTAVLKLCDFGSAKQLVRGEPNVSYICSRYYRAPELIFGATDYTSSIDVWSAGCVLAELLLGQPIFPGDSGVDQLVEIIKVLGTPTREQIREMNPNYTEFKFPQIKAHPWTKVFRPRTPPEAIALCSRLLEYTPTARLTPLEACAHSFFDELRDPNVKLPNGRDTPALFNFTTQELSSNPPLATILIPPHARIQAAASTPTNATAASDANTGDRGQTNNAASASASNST
row,stoichiometry N,Binder
1,2 peptide:protein,"SFSFIQLSLGAAGER (peptide, UniProt Q811T9 211-225, looked up) [DISCtide2 (15-mer peptide, mDISC1 amino acids 211 to 225)]"
2,2 peptide:protein,"PADIASLPGFQDTFTSSFSFIQLSLGAAGERGEAEGCLPSREAE (peptide, UniProt Q811T9 195-238, looked up) [DISCtide-1 (mDISC1 amino acids 195 to 238)]"

# From PMC2704382 (Cell, 2009)
